Experimental data as given in US6960658B1, “Maspin transcriptional regulatory sequences and uses thereof” (Dana-Farber Cancer Institute, Inc., priority 1996, dated 2005).

B1: Maspin: a serpin expressed in normal human mammary epithelial cells (protein, UniProt P36952 1-375, looked up)
Serpin B5: MDALQLANSAFAVDLFKQLCEKEPLGNVLFSPICLSTSLSLAQVGAKGDTANEIGQVLHFENVKDVPFGFQTVTSDVNKLSSFYSLKLIKRLYVDKSLNLSTEFISSTKRPYAKELETVDFKDKLEETKGQINNSIKDLTDGHFENILADNSVNDQTKILVVNAAYFVGKWMKKFSESETKECPFRVNKTDTKPVQMMNMEATFCMGNIDSINCKIIELPFQNKHLSMFILLPKDVEDESTGLEKIEKQLNSESLSQWTNPSTMANAKVKLSIPKFKVEKMIDPKACLENLGLKHIFSEDTSDFSGMSETKGVALSNVIHKVCLEITEDGGDSIEVPGARILQHKDELNADHPFIYIIRHNKTRNIIFFGKFCSP

Legend:
[1] = test system: maspin HRE element (pBLAp1/HRE reporter) in CF3 and LNCaP cells; test: CAT assay of pBLAp1/HRE construct with or without androgen (R1881) treatment; format: cell-based, human; settings: 50 nM R1881 vs vehicle added after transfection
Experimental: For construction of pBLAp1/HRE, pairs of OL8 and OL9 oligos were annealed as described above. The annealed product was phosphorylated by T4 polynucleotide kinase, and ligated to the BamHI site of pBLAp1 (pBLCAT2 containing three copies of Ap1) to generate pBLAp1/HRE (FIG. 12).
Cells were plated at 1 ×106/p100 and grown to about 75% confluence. SNA was transfected by the method of modified DEAE-Dextran (Promega, Inc., Madison, Wis.). The amounts of DNAs used were: 10 μg reporter plasmid, except for PCMVCAT in which only 2 μg of DNA was used. 1 μg of pCMVβgal was used as an internal control for transfection efficiency. For the androgen treatment, 50 nM methyltrienolone.(R1881, from Du Pont-New England Nuclear, Inc., Boston, Mass.) or vehicle was added to the cultures after transfection. […] The β-galactosidase activity in the extracts was calculated as described by Swisshelm et al. (Cell Growth Differ. 5:133, 1994). Twenty units of extracts (calculated by β-galactosidase activity) were used for each CAT assay except for transfection with pCMVCAT positive control in which only 10 units of extracts were used because of high activity. […] Quantitation of acetylated […] and nonacetylated chloramphenicol was performed by cutting out the appropriate regions of the silica gel TLC plate and counting in BioFluor (DuPont, Wilmington, Del.). […]

tumor cells [2] = settings: expressed in tumor transfectants or added as recombinant maspin; Sheng et al. 1994; cited from earlier work
tumor cells [3] = settings: Sager et al. 1995; cited from earlier work

Molecule	effect of R1881 treatment on HRE-mediated inhibition of promoter (CAT) activity [1]	invasion in a Boyden chamber assay (tumor cells [2])	mobility of tumor cells (tumor cells [3])
C[C@]1(O)CC[C@H]2[C@@H]3CCC4=CC(=O)CCC4=C3C=C[C@@]21C [R1881, methyltrienolone]	Little difference in inhibition		
B1		inhibits invasion	inhibit mobility of tumor cells
